Reference: PMC6315749 (Marine Drugs, 2018)

Legend:
[1] = molecular target: Aplysia californica acetylcholine-binding protein (Aplysia californica); assay: radioligand binding
[2] = molecular target: ligand-binding domain of the human nAChR α9 subunit, de-glycosylated, His-tagged (human) (UniProt Q9UGM1); assay: […] (20 mM Tris-HCl pH 8.0, 1 mg/mL BSA); […]

Row | Substance | IC50 [1] [nM] | IC50 [2] [nM]
1 | α-conotoxin RgIA, globular isomer (from UniProt P0C1D0 20-32) (peptide) | 194 | > 60000
2 | α-conotoxin RgIA, ribbon isomer (from UniProt P0C1D0 20-32) (peptide) | 1000 | –
3 | αO-conotoxin GeXIVA, beads isomer (peptide) | 2900 | 1630
4 | αO-conotoxin GeXIVA, globular isomer (peptide) | 2900 | –
5 | αO-conotoxin GeXIVA, ribbon isomer (peptide) | 2900 | –
